Source: publication PMC10368004

Legend:
Experiment in all cases: FM-AFM imaging
Details in all cases: remark: other sources report otherwise
[1] = target: T1, annexin A5, P08758
T1 chain: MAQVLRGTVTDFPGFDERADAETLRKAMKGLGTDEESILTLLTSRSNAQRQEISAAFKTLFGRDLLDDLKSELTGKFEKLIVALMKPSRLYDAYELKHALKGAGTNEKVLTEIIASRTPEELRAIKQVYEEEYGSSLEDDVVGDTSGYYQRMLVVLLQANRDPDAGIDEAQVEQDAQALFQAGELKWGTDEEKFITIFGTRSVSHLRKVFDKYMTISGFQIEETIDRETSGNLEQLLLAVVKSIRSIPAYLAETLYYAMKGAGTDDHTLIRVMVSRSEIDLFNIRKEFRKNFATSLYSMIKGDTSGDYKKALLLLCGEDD

[2] = target: T1, annexin A5, P08758
[3] = target: T1, annexin A5, P08758

percentage of unoccupied hollow sites (vacancies, sites without an H-trimer) [1]: 65.9%
percentage of unoccupied hollow sites (vacancies, sites without an H-trimer) [2]: 56.1%
percentage of unoccupied hollow sites (vacancies, sites without an H-trimer) [3]: 73.6%
stoichiometry N [3]: 3
B1: annexin A5, P08758 1-320 (natural protein)
chain: T1 chain
